Results taken from patent US20210238304A1 (EISAI R AND D MANAGEMENT, published 2021).

T1: rat mesothelin (rat, UniProt Q9ERA7 298-600, limits assumed)
T1 sequence (looked up): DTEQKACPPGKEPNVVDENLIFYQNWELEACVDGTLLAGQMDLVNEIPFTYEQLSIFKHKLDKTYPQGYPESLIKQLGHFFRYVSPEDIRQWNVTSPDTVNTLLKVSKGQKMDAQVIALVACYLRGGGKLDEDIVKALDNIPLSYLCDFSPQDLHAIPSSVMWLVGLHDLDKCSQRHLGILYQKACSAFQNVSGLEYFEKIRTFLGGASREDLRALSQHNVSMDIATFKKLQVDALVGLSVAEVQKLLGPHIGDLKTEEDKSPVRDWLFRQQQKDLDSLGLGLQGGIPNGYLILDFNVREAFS

B1: BAY 94-9343 (anetumab ravtansine) (antibody, human IgG1, lambda, V domains shown)
VH: QVELVQSGAEVKKPGESLKISCKGSGYSFTSYWIGWVRQAPGKGLEWMGIIDPGDSRTRYSPSFQGQVTISADKSISTAYLQWSSLKASDTAMYYCARGQLYGGTYMDGWGQGTLVTVSS
VL: DIALTQPASVSGSPGQSITISCTGTSSDIGGYNSVSWYQQHPGKAPKLMIYGVNNRPSGVSNRFSGSKSGNTASLTISGLQAEDEADYYCSSYDIESATPVFGGGTKLTVLG
modifications: SPDB-DM4 on lysines, DAR 3.7 for the whole antibody, positions not given
B2: anetumab (antibody, human IgG1, lambda, V domains shown)
VH: QVELVQSGAEVKKPGESLKISCKGSGYSFTSYWIGWVRQAPGKGLEWMGIIDPGDSRTRYSPSFQGQVTISADKSISTAYLQWSSLKASDTAMYYCARGQLYGGTYMDGWGQGTLVTVSS
VL: DIALTQPASVSGSPGQSITISCTGTSSDIGGYNSVSWYQQHPGKAPKLMIYGVNNRPSGVSNRFSGSKSGNTASLTISGLQAEDEADYYCSSYDIESATPVFGGGTKLTVLG
B3: Xi-383I18(AuF) (antibody, V domains shown)
VH: SQSVEESGGRLVTPGTPLTLTCTVSGFSLSSYAMGWVRQAPGEGLEWIGTISTGGITYYASWAKGRFTISKTSTTVDLKITSPTTEDTATYFCARVGSSGYLFYFFNLWGQGTLVTVSS
VL: VFELTQTPSPVSAAVGGTVTIRCQASQNIKSYLAWYQQKPGQPPKLLIYEASILASGVSSRFKGSGSGTEFTLTISDLECADAATYYCQSYYAASSNAFGGGTEVVVK
B4: 111B10 zu (humanized, CDR-grafted HC1-LC1) (antibody, V domains shown)
VH: EVQLVESGGGLVQPGGSLRLSCAASGFSLNNYAMSWVRQAPGKGLEWIGSISTGGLAFYANWAKGRFTISRDNSKNTLYLQMNSLRAEDTAVYYCARNGGGSYIFYYFDLWGQGTLVTVSS
VL: DIQMTQSPSSLSASVGDRVTITCQASQSISSYLSWYQQKPGKAPKLLIYSASTLASGVPSRFSGSGSGTDFTLTISSLQCEDAATYYCQSYYDIGTSTFGGGTKVEIKR
B5: 33O11 (rabbit-human chimeric anti-human mesothelin antibody) (antibody, V domains shown)
VH: QSVEESGGRLVTPGTPLTLTCTVSGISLSSDAISWVRQAPGKGLEYIGIINGGGNTYYASWAKGRFTISKTSTTVDLKITSPTTEDTATYFCARGIQHGGGNSDYYYYGMDLWGPGTLVTVSS
VL: EVLMTQTPSSVSAAVGDTVTIKCQASQSISSVLSWYQQKPGQPPKLLIYLASTLASGVPSRFSGSRSGTEFTLTISDLECDDAATYYCQTNYGTSSSNYGFAFGGGTEVVVK
B6: 345A12-HC15-LC4 (antibody, human IgG1, kappa, V domains shown)
VH: QVQLVESGGGVVQPGRSLRLSCAASGIDLSSYAMSWVRQAPGKGLEWIGVIDISGNRFYADWVKGRFTISRDNSKNTLYLQMSSLRAEDTAVYYCARVDSRAWGPFNLWGQGTLVTVSS
VL: DYQMTQSPSSLSASVGDRVTITCQASQSIFSYLAWYQQKPGKAPKLLIYDASDLASGVPSRFSGSGSGTDFTLTISSLQCEDAATYYCQQGYTRSDVDNAFGGGTKVEIKR
notes: Humanized rabbit antibody, human IgG1/kappa, unpaired Cys80 in the light chain; also called zu345A12-HC15-LC4
B7: 201C15 zu (humanized, CDR-grafted HC1-LC1) (antibody, V domains shown)
VH: QVQLVESGGGLVQPGGSLRLSCSASGIDLSSYAMGWVRQAPGKGLEYIGTINIGGRVYYASWAKGRFTISRDNSKNTLYLQMNSLRAEDTAVYYCARYYNGGSYDIWGQGTLVTVSS
VL: DIQMTQSPSTLSASVGDRVTITCQASESIYRVLAWYQQKPGKAPKLLIYDTSTLASGVPSRFSGSGSGTEFTLTISSLQCDDAATYYCQGGYYADSYGIAFGGGTKVEIKR
B8: 237N18 (rabbit-human chimeric anti-human mesothelin antibody) (antibody, V domains shown)
VH: QSLEESGGRLVAPGTPLTLTCTVSGFSLSSYHMSWVRQAPGEGLEWIGGITAMSRTYYASWAKGRFTISKTSTTVHLKITSPTTEDTATYFCAREPGFVSNIWGPGTLVTVSL
VL: AVVLTQTASPVSGVVGGTVTIKCQASQNIYSNLAWYQQKPGQRPKLLMYDASTLASGVPSRFKGSGSGTQFTLTISDLECADAATYYCQSISSVDNNVFGGGTEVVVK
B9: 346C6 zu (humanized, CDR-grafted HC1-LC1) (antibody, V domains shown)
VH: EVQLVESGGGLVQPGGSLRLSCAASGFSLSSYAMIWVRQAPGKGLEWIGTISTGGITYYASWAKGRFTISRDNSKNTLYLQMNSLRAEDTAVYYCARGGYAASSAYYLPYYFDLWGQGTLVTVSS
VL: DIQMTQSPSSLSASVGDRVTITCQSSQSVYNNNNLAWYQQKPGKVPKLLIYLASTLASGVPSRFSGSGSGTDFTLTISSLQCEDAATYYCLGGCDDDADTFAFGGGTKVEIKR

Assays:
[1] = target: human mesothelin expressed on cells (human, UniProt Q13421 37-598); assay: cell-based or functional assay
[2] = target: T2, human mesothelin (recombinant, soluble) (human, UniProt Q13421 296-598, limits assumed); assay: SPR BIAcore T-100, captured mAb, mesothelin 0.16-100 nM, single-cycle kinetics
T2 construct: Analyte in BIAcore, coat in ELISA (CHO-MT40 mesothelin), biotinylated on Octet tips; also called MSLN; CHO-MT40 mesothelin
Method: (§1) Binding affinity: Binding measurements were performed in HBS-P+ buffer on a BIAcore T-100 instrument. Antibodies were diluted to 1 μg/mL in HBS-P+. Samples were centrifuged at 14,000×g for 5 min at room temperature and then supernatants were transferred to a new 1.5 mL BIAcore tube and capped. […] Anti-human antibody capture chip was prepared according to the manufacturer's protocol using a CMS chip with immobilization wizard. Final capture antibody levels were 8000-9000RU, in HBS-P+.
(§2) Antibodies were captured on flow cells 2-4 by sequential injections of individual ligand solutions for 90 sec at 10 μL/min. Analyte injection was done in a single-cycle kinetics manner by sequential injections of analyte solutions from low to high concentration for 240 sec each at 30 μL/min. Detection was 2-1, 3-1, 4-1. Double-referencing was performed by a sequence of identical ligand capture injections, followed by 5 buffer-only injections for 240 sec each, dissociation for 1800 sec, and regeneration as above. All ligands were analyzed for binding to mesothelin in duplicate. Kinetic analysis was performed using BIAEvaluations software using a 1:1 Langmuir fitting model. On-rate, off-rate, and affinity constants were averaged from duplicate runs.

rat mesothelin = target: T1, rat mesothelin; assay: SPR BIAcore, captured mAb, mesothelin analyte
Method: as §1, §2

[3] = target: T3, human mesothelin (recombinant, soluble) (human, UniProt Q13421 296-598); assay: SPR BIAcore, captured mAb, mesothelin analyte
[4] = target: T3, human mesothelin (recombinant, soluble); assay: SPR BIAcore, parental mAb captured, mesothelin analyte
[5] = target: T2, human mesothelin (recombinant, soluble); assay: SPR BIAcore, run 4
Method: as §2, with “Anti-mesothelin antibody binding affinity to mesothelin was measured by BIAcore (BIAcore T-100, GE healthcare, #1426075), using a series S CMS chip. Antibody concentrations were adjusted to 1 μg/mL and mesothelin (50 μg) to 100 nM in 1×HBS-P+ buffer (GE Healthcare). Anti-human antibody capture chip was prepared according to the manufacturer's protocol using a CMS chip with immobilization wizard. Final capture antibody levels were 8000-9000 RU, in HBS-P+. Chip was prepared for assay with five cycles of 300 sec buffer injection followed by 30 sec regeneration, all at 30 μL/min across all four flow cells. Antibodies” for “Antibodies”

[6] = target: T2, human mesothelin (recombinant, soluble); assay: SPR BIAcore, affinity against anetumab as reference
Method: as §1, §2

[7] = target: cynomolgus monkey mesothelin (cynomolgus monkey); assay: SPR BIAcore T-100, captured mAb, mesothelin analyte, single-cycle kinetics
Method: as §1, §2

T3 sequence (Q13421 other isoform, or with tags, fused parts or gaps): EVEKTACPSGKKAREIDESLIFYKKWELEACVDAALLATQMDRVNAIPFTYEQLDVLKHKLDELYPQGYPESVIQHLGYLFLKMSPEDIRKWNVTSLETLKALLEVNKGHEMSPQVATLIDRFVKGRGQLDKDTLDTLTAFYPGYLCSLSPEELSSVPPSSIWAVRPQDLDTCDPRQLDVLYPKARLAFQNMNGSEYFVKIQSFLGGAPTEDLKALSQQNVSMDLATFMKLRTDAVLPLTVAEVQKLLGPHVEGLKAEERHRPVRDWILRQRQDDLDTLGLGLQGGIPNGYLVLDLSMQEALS
human mesothelin expressed on cells, sequence (Q13421 other isoform, or with tags, fused parts or gaps): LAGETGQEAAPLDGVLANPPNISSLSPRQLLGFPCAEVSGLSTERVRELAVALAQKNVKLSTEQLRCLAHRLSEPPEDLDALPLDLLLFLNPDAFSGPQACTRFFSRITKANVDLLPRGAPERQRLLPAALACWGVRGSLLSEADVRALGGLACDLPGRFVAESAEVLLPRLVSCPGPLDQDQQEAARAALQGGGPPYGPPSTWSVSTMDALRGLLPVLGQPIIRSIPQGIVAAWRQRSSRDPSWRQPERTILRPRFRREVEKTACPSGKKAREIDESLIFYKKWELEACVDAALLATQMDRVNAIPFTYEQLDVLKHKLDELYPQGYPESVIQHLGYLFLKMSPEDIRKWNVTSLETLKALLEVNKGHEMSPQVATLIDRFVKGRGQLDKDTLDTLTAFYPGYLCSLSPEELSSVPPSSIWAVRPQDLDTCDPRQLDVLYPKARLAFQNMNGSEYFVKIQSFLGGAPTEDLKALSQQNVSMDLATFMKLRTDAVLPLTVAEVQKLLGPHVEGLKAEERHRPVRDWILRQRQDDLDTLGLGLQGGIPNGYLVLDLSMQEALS

Binder	Kd [3] [nM]	koff [3] [s⁻¹]	kon [3] [M⁻¹ s⁻¹]	Kd [4] [nM]	koff [4] [s⁻¹]	kon [4] [M⁻¹ s⁻¹]	further results
B1	–	–	–	–	–	–	EC50 (read off the curve): % killing of NCI-N87 cells, BAY 94-9343 alone [1]: ~0.8 nM; EC50 (read off the curve): % killing of NCI-N87 cells, BAY 94-9343 with 3 uM unconjugated anetumab [1]: ~0.8 nM
B2	–	–	–	–	–	–	Kd [2]: 7.26 nM; koff [2]: 0.00112 s⁻¹; kon [2]: 168000 M⁻¹ s⁻¹; binding result (rat mesothelin): no binding (tested: 100 nM highest analyte concentration)
B3	0.28	0.000281	1.01e+06	–	–	–	–
B4	–	–	–	6.5	0.003	510000	–
B5	0.335	0.000668	1.99e+06	–	–	–	–
B6	–	–	–	–	–	–	Kd [2]: 0.195 nM; koff [2]: 0.000285 s⁻¹; kon [2]: 1.46e+06 M⁻¹ s⁻¹; binding result (rat mesothelin): no binding (tested: 100 nM highest analyte concentration); Kd [5]: 0.0779 nM; koff [5]: 0.000112 s⁻¹; kon [5]: 1.44e+06 M⁻¹ s⁻¹; fold higher affinity than anetumab [6]: 40 fold; Kd [7]: 88.6 nM; koff [7]: 0.000751 s⁻¹; kon [7]: 10500 M⁻¹ s⁻¹
B7	–	–	–	4.2	0.0011	310000	–
B8	3.38	0.00428	1.27e+06	–	–	–	–
B9	–	–	–	8.9	0.093	1.33e+07	–
